Assay results from the supplement of paper PMC9170038.

Test system: MS2 coat protein
Test: apparent KD of MS2 coat protein; designed switch direction (-1 OFF switch, 1 ON switch): -1; higher = weaker reporter binding
In short: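 Stalled E. coli RNA polymerase transcribed designed RNA switches on Illumina chips, which were then titrated with SNAP-549-labelled MS2 coat protein, doubling from 0.7 or 1.5 nM to 3 µM. Steps lasted from 0.8–1.5 h at the lowest concentration to 10–20 min at the highest. The apparent KD is each design's median over clusters of curve-fitted normalised fluorescence.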

[1] = input ligand: microRNA oligo, concentration not stated
[2] = Eterna round: R95, input ligand: FMN 200 uM
[3] = Eterna round: R95, input ligand: microRNA oligo, concentration not stated
[4] = Eterna round: R95, input ligand: none

Sequence | apparent KD of MS2 coat protein (input ligand: FMN 200 uM) [nM] | apparent KD of MS2 coat protein [1] [nM] | apparent KD of MS2 coat protein (input ligand: none) [nM] | apparent KD of MS2 coat protein [2] [nM] | apparent KD of MS2 coat protein [3] [nM] | apparent KD of MS2 coat protein [4] [nM]
GGAGGACGAGCAGGAUAUUUUUACAUGAGGAUCACCCAUGUGUAAUCAGGGUAAUCCUCCGCCGAAAAGAAGGGUUCGGAAGAA [Mat - Exclusion NG 2 - Mod of JL - D83] (Eterna round: R96, puzzle: Exclusion NG 2) | 2750 | 16.9 | 67.6 | – | – | –
UUUGGUGUAGGAUAUACAUGAGGAUCACCCAUGUGCUCCUGCGAGUUCGAAUCCAAAGGUAGAAGGGCGCUAAU [Eternabot (L2) Solution 83] (Eterna round: R97, puzzle: Exclusion 3) | 23.3 | – | 21.2 | – | – | –
UAUCGGCGGACCGAGGCUUUUUGCUCGUCUUAUGCUACGACAUGAGGAUCACCCAUGUGGUGGUGGUCCGUUGUAGU [JL ViennaUCT Bitein mod 8] (puzzle: Sensor v3, turn-off variant 2) | – | – | – | 123 | 15.2 | 107
CCGACGUGAGGAUAUCCAUCUGGAUCAGACUAGAUCCUGAUGGAGAAGGCACAUGAGGAUCACCCAUGUUACGG [Eli 4x 4.41] (Eterna round: R97, puzzle: Exclusion 4) | 909 | – | 524 | – | – | –
UGCUACGGAGGAUAUACAUGAGGAUCACCCAUGUGAUAGAUUAUCGCGAGAGCGUAAUGUAGAAGGCCGUAGCU [jl-ex3-4.12 jl mod] (Eterna round: R97, puzzle: Exclusion 3) | 506 | – | 56 | – | – | –
CCUUAGUCACAGGAUAUGCUCAUCUAAUGAUGAGCAGAAGGGUGGACAUGAGGAUCACCCAUGUUUAUCAAGGG [Omei Ex6 E2] (Eterna round: R97, puzzle: Exclusion 6) | 249 | – | 348 | – | – | –
AUGAGACAUGAGGAUCACCCAUGUGAGGAUAUGUAUGGAUGGUGGAAAGAAUGAGAGAACAGAAGGCACGUAGA [JR_Exclu1_Sub062] (puzzle: Exclusion 1) | – | – | – | 122 | 109 | 231
UAAGUGUGAGGAUAUGGUAAAGAUAGAAUGAUGAAAGAACUCCAGAAGGCACAUGAGGAUCACCCAUGUAGAUG [Mat - Exclusion 4 - Mod of JL - D24] (puzzle: Exclusion 4) | – | – | – | 60.2 | 30.8 | 31.9
UUUAGUUCAGGAUAUGUAGAUUUUAACAUGAGGAUCACCCAUGUAGAUCCUGAAUUAACUACAGAAGGGAACAUUA [Exclusion 5: 2:d] (Eterna round: R96, puzzle: Exclusion 5) | 81.1 | 20.3 | 24.7 | – | – | –
GCGGACUAGAUCGUGAGAUCAGAGACAUGAGGAUCACCCAUGUAGGAUAUCGAUUCGAAACGAAUCGAGAAGGGCAUAGUCCGC [JL denovo 7] (Eterna round: R96, puzzle: Exclusion NG 3) | 17.1 | 14.8 | 15.9 | – | – | –
GGUUCGUGAGGAUAUGUGGCUUCGAUCGUGCGAAGAAGGCUACAGAAGGCACAUGAGGAUCACCCAUGUUCGUC [salish99_ex4_r4_228] (Eterna round: R97, puzzle: Exclusion 4) | 241 | – | 62.1 | – | – | –
UUGAUUGGUGUAGGAUAUGUAUGAGGAUCACCCAUUAAUAAAUUUUAACCACGAGGAUCACCCGUGUAGAAGGACAUUGGUUAU [pwkr exNG2 2xF5 1xFMN.21] (Eterna round: R96, puzzle: Exclusion NG 2) | 51.9 | 37.8 | 59.3 | – | – | –
UUCCUACAUGAGGAUCACCCAUGUCAGGAUAUCUCCUCACCGCGAAUGGGCAGUGAAUAGAGAAGGGACAGGAA [Aner] (puzzle: Exclusion 1) | – | – | – | – | 13.5 | –
UGCAUGUAAGGAUAUGCAUCCGCCGACGUCCCGGCGGCACAGCAGAAGGUACAUGAGGAUCACCCAUGUGUCCC [Qusousar] (Eterna round: R96, puzzle: Exclusion 4) | 449 | 24 | 31 | – | – | –
UAUUAGCAAGCAAGAUCCCACAUGAGGAUCACCCAUGUGCUCGUCUUAUAAGGUACUGUGACGAGAGUCACGGUACC [Mat - Sensor, turn-off var - Eli Mod - D47] (Eterna round: R97, puzzle: Sensor, turn-off variant 1) | 51.4 | – | 54.2 | – | – | –
GGCACACAUGAGGAUCACCCAUGUGAGGAUAUGAGGCGAUCGUCGAAAGACGAUAGCCUCAGAAGGCACAUGCC [Eli x1 4.10] (Eterna round: R97, puzzle: Exclusion 1) | 42.9 | – | 16 | – | – | –
CGUUGUCAAGGAUAUAUAGAGCUAUACAUGAGGAUCACCCAUGUGGUUAGUGUUGUGUGAGUAGAAGGUGGAAUGU [Eternabot (L2) Solution 99] (Eterna round: R97, puzzle: Exclusion 5) | 84.3 | – | 224 | – | – | –

Sequence | apparent KD of MS2 coat protein (input ligand: FMN 200 uM) [nM] | apparent KD of MS2 coat protein [1] [nM] | apparent KD of MS2 coat protein (input ligand: none) [nM] | apparent KD of MS2 coat protein [2] [nM] | apparent KD of MS2 coat protein [3] [nM] | apparent KD of MS2 coat protein [4] [nM]
GCCGUAAAUGUGAGGAUAUACCUAUGGAAACAUAGGUAGAAGGCACAUGAGGAUCACCCAUGUUCUUAAUCGGC [Mat - Exclusion 4 - Eli Mod - D2] (Eterna round: R97, puzzle: Brourd's mod of Exclusion 4) | 689 | – | 212 | – | – | –
UUGUUAUGUGUAGGAUAUGCGUAUUAUUAUUAUGCAGAAGGACAUGAGGAUCACCCAUGUGUAUUAUUAUUAUAUAUUAUAUAU [Title] (Eterna round: R96, puzzle: Exclusion NG 1) | 41.2 | 20.4 | 22 | – | – | –
UUUUACAGGCUUAGAUCCUACAUGAGGAUCACCCAUGUGGUCCGGUGACGUGAGUCACCGGACUAAGCUCGUCUUGU [JL TOV1 3.72] (Eterna round: R97, puzzle: Sensor, turn-off variant 1) | 156 | – | 143 | – | – | –
GCGCCAUCGUGAGAUGGCGUUCCGACAUGAGGAUCACCCAUGUAGGAUAUCGAUUGCUUUGCAGUCGAGAAGGGCGUGAUAAGU [JL ENG3 3.73] (Eterna round: R96, puzzle: Exclusion NG 3) | 18.3 | 17.8 | 22.9 | – | – | –
AGAUCCUGAGUCAGGAUAUAGAGGCGAAAGCCUGGCUAGAAGGGACAUGAGGAUCACCCAUGUGGGUUCGUGCC [Geariat] (puzzle: Brourd's mod of Exclusion 4) | – | – | – | – | 19.6 | –
CUCUUGGCAGGAUAUGCUCUUUUAGACAUGAGGAUCACCCAUGUGCUCAUUCCUUCUUUUGCAGAAGGGCCUUAAC [JR_E5_Sub048] (puzzle: Exclusion 5) | – | – | – | – | 63.8 | –
UUUCUUAAGUGGUCGCUUCACAUGAGGAUCACCCAUGUCGCCUCUAUGGCAUUAAAUACGAGCUUUUUGCUUGAAUU [Eternabot (L1) Solution 14] (Eterna round: R97, puzzle: Sensor, turn-off variant 1) | 312 | – | 385 | – | – | –
UGUAACCUAGGAUAUACAUGAGGAUCACCCAUGUAAUGUAGUAUAGUGUGUGUAAGGUGUAGAAGGAGGGAUGU [LRO-Excl05-22-Smart Aleck] (Eterna round: R97, puzzle: Exclusion 3) | 9.76 | – | 62.9 | – | – | –
GCGUUCUGAGGAUAUACAUGAGGAUCACCCAUGUUGAGAAUUAGGUAUAAGGGAUUUUGUAGAAGGCAGAGUGC [JR_Ex3_Sub072] (Eterna round: R97, puzzle: Exclusion 3) | 228 | – | 59.9 | – | – | –
UAGGUACGAGGAUAUACAUAGAUACAGACACAUGUAGAUGUACAUGAGGAUCACCCAUGUAGAAGGCGUAUAUA [Mat - Same state - Mayanna Mod - D110] (Eterna round: R96, puzzle: Exclusion 2) | – | 60.7 | – | – | – | –
UUAACGUGGGCGUCCCACAGCAAGCUUUUUGCUCGUUUAACAUGAGGAUCACCCAUGUCGCUGCGGGAUCCCUAUGA [Abeisat] (puzzle: Sensor v3, turn-off variant 2) | – | – | – | 13.5 | 13.1 | 11.6
CGGGCAGCAGGAUAUACAUAGGUCAACAGAAAUGAGUAUUGACAUGAGGAUCACCCAUGUAGAAGGGCUGUACC [Eternabot (L2) Solution 96] (Eterna round: R97, puzzle: Exclusion 2) | 412 | – | 391 | – | – | –
CAUUAUUAUCGAGGAUAUCGUAUUGAGAUACUAUGAGAAGGCGGGAUAAACAUGAGGAUCACCCAUGUGAGCCUGAUGCUUGUG [Ex NG1 #37] (Eterna round: R96, puzzle: Exclusion NG 1) | 17.4 | 14.3 | 19.3 | – | – | –
UAAUUGAUUAAUAAAUAAUACAUGAGGAUCACCCAUGUAGAUCCUACAUACCAUUUAAGUAGCUCGUCUUAUUAUUA [Sensor-V1 #62] (Eterna round: R97, puzzle: Sensor, turn-off variant 1) | 217 | – | 213 | – | – | –
GUUGUUUAUGUAGGAUAUGCCUGGCGUGCCUUCGCAGAAGGACAUGAGGAUCACCCAUGUAUUGCGGUCUGCGUUCAGAUCGCU [salish99_ExNG1_r4_023] (Eterna round: R96, puzzle: Exclusion NG 1) | 49.8 | 38.8 | 52.7 | – | – | –
AACUCACAUGAGGAUCACCCAUGUGAGGAUAUGAUACUAUGUACUUCGGUACAUAGUAUCAGAAGGCAUGUGGG [Ex1-3: 94] (puzzle: Exclusion 1) | – | – | – | – | 49.7 | –
UUUAAUUUUUUUUUUUUACAAGCUUUUUGCUCGUCUUAUACAUGAGGAUCACCCAUGUGGGUGAAGGAUAAAUUAUC [JMF 26] (puzzle: Sensor v3, turn-off variant 2) | – | – | – | 35.6 | 36.2 | 34.3
